Results on five variants are retold here after FireProtDB (doi:10.1021/bi201253b).

For orientation: Tm means the temperature at the midpoint of the melting transition.

B1: V170R, A5H7H0 (parent)
chain: MQLQNFLSIVLLVVSGAIAGTVMDHDKIAKLPASGSPLETKFQPQLHIGNGCHSYPAVDAQGNWSGGLKPTGAPSAACKDTSKAQTYVRSATFQGKTALVYAWYMPKDEISTGIGHRHDWEGAVVFLNSDTQQIDGVAASAHGKWRKYPNPGGANIDDTHVKLQYSAEPVINSHALDLTDKGGDLPTLASWEGMGADARAAINERSHWGDANPPIADSLIGSSLSGAWMW

The data set covers variants of B1. As to conditions: Moniliophthora perniciosa; pH 7.2; Thermal; CD; sodium phosphate buffer 4mM; EDTA CaCl2 with ZnCl2 62.5 micro M 120 micro M 120 micro M; structure 3ST1; whole UniProt chain shown.

For V170R, the Tm worked out at 37.7 °C and the “change of melting temperature, mutant - wild type (higher = more stable)” value (“change of melting temperature, mutant” below) is -2.26 °C.

As for D119K, the Tm was 40.2 °C and the “change of melting temperature, mutant” value amounted to 0.25 °C.

As to D210S, the midpoint of thermal melting (Tm) came to 38.7 °C and the “change of melting temperature, mutant” value was -1.25 °C.

On to H116A, for which the Tm is 40.4 °C and the “change of melting temperature, mutant” value came out at 0.4 °C.

As to H116S, the midpoint of thermal melting (Tm) is 39.9 °C and the “change of melting temperature, mutant” value was -0.07 °C.
